Residue numbers refer to the chain shown, from its start. Oligonucleotides are written 5' to 3', each unit as a sugar letter and its base; * is a phosphorothioate linkage, no mark a phosphodiester; rarer units and linkages stand in square brackets, end groups in braces. Plain capitals give the bases only. d = 2'-deoxy (DNA); r = 2'-OH (RNA); f = 2'-fluoro
B1: AMX205.A7: rRdY aptamer clone (nucleic acid)
chain: rGrGrArGdCrGdCrAdCdTdCrArGdCdCrAdCdTdCrArArGrGrGrGrGdTdCrGdCrGdTrGrGrGrGrAdCrGrArArGrGrGdTdTrGdCrArGdTrGdTrGdTdCrGdTdTdTdCrGrAdCdCdTdCdTdCdTrGdCdTrArGdC
B2: AMX201.B11: rRfY aptamer clone (nucleic acid)
chain: rGrGrArGfCrGfCrAfCfUfCrArGfCfCrAfCrAfCfCrGrArGrGfCfUrGrGrAfUrAfUfCfUrAfCrGrArGrArGrGrArArGfUrGfCfUrGfCfUfUrGrArAfUfUfUfCrGrAfCfCfUfCfUfCfUrGfCfUrArGfC
B3: AMX201.H11: rRfY aptamer clone (nucleic acid)
chain: rGrGrArGfCrGfCrAfCfUfCrArGfCfCrAfCfCfCfUrGfUfCrGfUfCfUfUfUfUrGrGfUrArGfUfCrArGfCfCrArArArArGfCfUrArGfUfUrGrGfUfUrGfUfUfUfCrGrAfCfCfUfCfUfCfUrGfCfUrArGfC
B4: AMX203.A6: rRdY aptamer clone (nucleic acid)
chain: rGrGrArGdCrGdCrAdCdTdCrArGdCdCrAdCdCrAdCrGrGrGrGrAdCrGrGrGdTrArGrGrGdCrGrGrGdCrGrArGrGdTrGrGdTrGrGdCrAdTdTrArGdCrGdTdTdTdCrGrAdCdCdTdCdTdCdTrGdCdTrArGdC
B5: AMX200.G11: DNA SELEX 1 aptamer clone (nucleic acid)
DNA: CTACCTACGATCTGACTAGCGGAACGAGAATGCTGATGGATTGCTCAGGTCTGCTGGCTGCTTACTCTCATGTAGTTCC
modifications: DNA, backbone not given here
notes: DNA SELEX 1 aptamer clone
B6: AMX200.E8: DNA SELEX 1 aptamer clone (nucleic acid)
DNA: B5 DNA with C25T, A29G, A36G, C54T
modifications: DNA, backbone not given here
notes: DNA SELEX 1 aptamer clone
B7: AMX200.B8: DNA SELEX 1 aptamer clone (nucleic acid)
DNA: B5 DNA with C25T, C33T, A36G
modifications: DNA, backbone not given here
notes: DNA SELEX 1 aptamer clone
B8: AMX200.A7: DNA SELEX 1 aptamer clone (nucleic acid)
DNA: B5 DNA with C25T, C44T
modifications: DNA, backbone not given here
notes: DNA SELEX 1 aptamer clone
B9: AMX200.D8: DNA SELEX 1 aptamer clone (nucleic acid)
DNA: B5 DNA with C25T, C33T
modifications: DNA, backbone not given here
notes: DNA SELEX 1 aptamer clone
B10: AMX200.D1: DNA SELEX 1 aptamer clone (nucleic acid)
DNA: B5 DNA with C25T, A30G, G53A
modifications: DNA, backbone not given here
notes: DNA SELEX 1 aptamer clone
B11: AMX200.B1: DNA SELEX 1 aptamer clone (nucleic acid)
DNA: B5 DNA with C25T, T45C
modifications: DNA, backbone not given here
notes: DNA SELEX 1 aptamer clone
B12: AMX200.D11: DNA SELEX 1 aptamer clone (nucleic acid)
DNA: B5 DNA with C25T, G26A
modifications: DNA, backbone not given here
notes: DNA SELEX 1 aptamer clone
B13: AMX200.B9: DNA SELEX 1 aptamer clone (nucleic acid)
DNA: B5 DNA with C25T, G57A
modifications: DNA, backbone not given here
notes: DNA SELEX 1 aptamer clone
B14: AMX200.F9: DNA SELEX 1 aptamer clone (nucleic acid)
DNA: B5 DNA with C25T, A29G, C44G
modifications: DNA, backbone not given here
notes: DNA SELEX 1 aptamer clone
B15: AMX201.D10: rRfY aptamer clone (nucleic acid)
chain: rGrGrArGfCrGfCrAfCfUfCrArGfCfCrAfCrAfCfUrGrArGrGfCfUrGrGrAfUrAfUfCfUrAfCrGrArGrArGrGrArArGfUrGfCfUrGfCfUfUrGrGrAfUfUfUfCrGrAfCfCfUfCfUfCfUrGfCfUrArGfC
B16: AMX205.G9: rRdY aptamer clone (nucleic acid)
chain: rGrGrArGdCrGdCrAdCdTdCrArGdCdCrAdCrArAdCdTrGrGdTdTrGdTdCrGrGdTrGrAdTrGrGdCrAdTdTrArAdCrGdCrGrGrAdCdCrArGrGdCrAdTrGdTdTdTdCrGrAdCdCdTdCdTdCdTrGdCdTrArGdC
B17: AMX201.A8: rRfY aptamer clone (nucleic acid)
chain: rGrGrArGfCrGfCrAfCfUfCrArGfCfCrAfCrGfCfUrGfUrAfCrAfCfUrGrAfUrGfUfUrGfUrArAfCrAfUrGfUrAfCfCfCfCfCfUrGrGfCfUrGfUfUfUfCrGrAfCfCfUfCfUfCfUrGfCfUrArGfC
B18: AMX201.H4: rRfY aptamer clone (nucleic acid)
chain: rGrGrArGfCrGfCrAfCfUfCrArGfCfCrAfCfUrArAfCrGrGfUfUrGrAfUfCfUfCrArGrGrAfCfUrArAfUrArGfUfCrArAfCrArArGrGrAfUrGfCrGfUfUfUfCrGrAfCfCfUfCfUfCfUrGfCfUrArGfC
B19: AMX201.D4: rRfY aptamer clone (nucleic acid)
chain: rGrGrArGfCrGfCrAfCfUfCrArGfCfCrAfCfUrGrGrGrGfCfUrGrAfUfCfUfCrGfCrAfCrGrAfUrArGfUfUfCrGfUrGfUfCrArArGrGrAfUrGfCrGfUfUfUfUfCrGrAfCfCfUfCfUfCfUrGfCfUrArGfC
B20: AMX201.D3: rRfY aptamer clone (nucleic acid)
chain: rGrGrArGfCrGfCrAfCfUfCrArGfCfCrAfCrGfCfCfCrAfCrGfUfCrArArAfUfUrAfUrArGfUfCfUrAfCfUfUfUrGrAfUrGfUrGfCfCfCrGfUrGrGfUfUfUfCrGrAfCfCfUfCfUfCfUrGfCfUrArGfC
B21: AMX203.F9: rRdY aptamer clone (nucleic acid)
chain: rGrGrArGdCrGdCrAdCdTdCrArGdCdCrAdCdTrGrArArGrGrGdTrArArGrGrAdCrGrArGrGrArGrGrGdTrAdTrAdCrArGdTrGdTrGdCrGdCrGdTrGdTrAdTdTdTdCrGrAdCdCdTdCdTdCdTrGdCdTrArGdC

Key:
[1] = tested on: rabbit vWF A1 domain (SEQ ID NO 6); experiment: 3-point dot blot screen, rabbit vWF A1 domain; format: binding; conditions: 100 nM rabbit vWF A1 domain, ratio of fraction bound with target to without
Chain of rabbit vWF A1 domain (SEQ ID NO 6) (as listed by the source): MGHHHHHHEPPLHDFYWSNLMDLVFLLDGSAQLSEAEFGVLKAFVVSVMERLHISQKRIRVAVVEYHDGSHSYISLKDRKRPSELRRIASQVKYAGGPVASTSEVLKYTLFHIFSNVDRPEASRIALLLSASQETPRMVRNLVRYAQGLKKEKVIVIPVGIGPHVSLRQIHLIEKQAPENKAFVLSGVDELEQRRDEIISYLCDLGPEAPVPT
Excerpt: (§1) When a significant positive ratio of binding of RNA in the presence of human or rabbit vWF A1 domain versus in the absence of protein was seen, the pools were cloned using the TOPO TA cloning kit (Invitrogen, Cat. #45-0641, Carlsbad, Calif.) according to the manufacturer's instructions. Round 9 and 12 pool templates were cloned and sequenced (125 total sequences), producing 48 unique clones. All unique clones were transcribed, desalted, 5-^32P end-labeled, and assayed in a 3-point dot blot screen (no protein target control, 100 nM human vWF A1 domain (SEQ ID NO 5, FIG. 3), or 100 nM rabbit vWF A1 domain (SEQ ID NO 6, FIG. 3). The data is presented in the third and fourth columns of Table 4 below as the ratio of the fraction of the aptamer bound to the nitrocellulose in the presence of the target protein to the fraction of aptamer bound in the absence of the target protein.
(§2) When a significant positive ratio of binding of RNA in the presence of human or rabbit vWF A1 domain (SEQ ID NOS 4 and 6, respectively) versus in the absence of protein was seen, the pools were cloned using the TOPO TA cloning kit (Invitrogen Cat. #45-0641, Carlsbad, Calif.) according to the manufacturer's instructions. Round 9 and 12 pool templates were cloned and sequenced (185 total sequences), producing 78 unique clones within 3 sequence families. All unique clones were transcribed, desalted, 5-^32P end-labeled, and assayed in a 3-point dot blot screen (no protein target control, 100 nM human vWF A1 domain (SEQ ID NO 5), or 100 nM rabbit vWF A1 domain (SEQ ID NO 6). The data are presented in the third and fourth columns of Table 9 below as the ratio of the fraction of the aptamer bound to the nitrocellulose in the presence of the target protein to the fraction of aptamer bound in the absence of the target protein. Of the three sequence families, members of Family #1 and #2 and two individual, non-family aptamers, bound to both human vWF domain A1 (SEQ ID NO 5) and rabbit vWF domain A1 (SEQ ID NO 6).
(§3) All unique clones were assayed in a 3-point dot blot screen (no protein target control, 100 nM human vWF A1 domain (SEQ ID NO 5), or 100 nM rabbit vWF A1 domain (SEQ ID NO 6). The data are presented in the third and fourth columns of Table 14 below as the ratio of the fraction of the aptamer bound to the nitrocellulose in the presence of the target protein to the fraction of aptamer bound in the absence of the target protein.
When a significant positive ratio of binding of DNA in the presence of human or rabbit vWF A1 domain versus in the absence of protein was seen, the pools were cloned using the TOPO TA cloning kit (Invitrogen Cat. #45-0641, Carlsbad, Calif.) according to the manufacturer's instructions. Round 7 and 11 pool templates were cloned and sequenced (218 total sequences), producing 146 unique clones within 12 sequence families of which sequences from six families show vWF target binding activity. All unique clones were assayed twice in a 3-point dot blot screen (no protein target control, 20 nM full length human vWF (Calbiochem Cat. #681300, La Jolla, Calif.), or 20 nM rabbit vWF A1 domain. The data is presented in the third and fourth columns of Table 17 below as the ratio of the fraction of the aptamer bound to the nitrocellulose in the presence of the target protein to the fraction of aptamer bound in the absence of the target protein.

[2] = biological target: human vWF A1 domain (SEQ ID NO 5) (Homo sapiens, UniProt P04275, T1381A); experiment: 3-point dot blot screen, human vWF A1 domain; format: binding; conditions: 100 nM human vWF A1 domain
Chain of human vWF A1 domain (SEQ ID NO 5) (P04275 with tags, fused parts or gaps T1381A): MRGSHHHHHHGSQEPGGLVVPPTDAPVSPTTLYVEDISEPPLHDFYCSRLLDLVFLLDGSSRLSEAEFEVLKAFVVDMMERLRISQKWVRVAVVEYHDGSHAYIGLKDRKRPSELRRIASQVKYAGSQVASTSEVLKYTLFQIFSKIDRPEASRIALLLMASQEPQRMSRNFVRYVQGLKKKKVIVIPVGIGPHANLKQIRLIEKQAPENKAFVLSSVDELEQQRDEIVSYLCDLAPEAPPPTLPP
Excerpt: as §1, §2, §3

[3] = rRdY aptamers, ratio of fraction bound with target to without
[4] = rRfY aptamers, ratio of fraction bound with target to fraction bound without target
[5] = DNA SELEX 1 aptamers, ratio of fraction bound with target to without

Molecule	Screen- Rabbit/No Protein ([1]; rRfY aptamers)	Screen- Human/No Protein [2, 4]	Screen- Rabbit/No Protein ([1]; DNA SELEX 1 aptamers)	Screen- Human/No Protein [2, 5]	also measured
B1	–	–	–	–	Screen- Rabbit/No Protein ([1]; rRdY aptamers): 1.37; Screen- Human/No Protein [2, 3]: 1.24
B2	1.52	1.55	–	–	–
B3	1.40	1.75	–	–	–
B4	–	–	–	–	Screen- Rabbit/No Protein ([1]; rRdY aptamers): 1.16; Screen- Human/No Protein [2, 3]: 1.16
B5	–	–	1.28	1.73	–
B6	–	–	1.03	1.04	–
B7	–	–	3.13	4.13	–
B8	–	–	0.96	0.97	–
B9	–	–	1.61	2.86	–
B10	–	–	1.06	1.26	–
B11	–	–	3.01	4.01	–
B12	–	–	2.04	3.34	–
B13	–	–	2.06	2.54	–
B14	–	–	0.99	0.97	–
B15	1.52	1.59	–	–	–
B16	–	–	–	–	Screen- Rabbit/No Protein ([1]; rRdY aptamers): 1.73; Screen- Human/No Protein [2, 3]: 1.30
B17	1.51	1.82	–	–	–
B18	1.86	1.79	–	–	–
B19	2.46	2.23	–	–	–
B20	1.52	1.76	–	–	–
B21	–	–	–	–	Screen- Rabbit/No Protein ([1]; rRdY aptamers): 1.29; Screen- Human/No Protein [2, 3]: 1.45

— US7998940B2, “Aptamers to von Willebrand factor and their use as thrombotic disease therapeutics” (Archemix Corp., priority 2004, dated 2011)
